Article doi:10.1101/2025.08.04.668577 (bioRxiv, 2025)

Biological target: E2 ectodomain of HCV strain 1a154 (Hepatitis C virus genotype 1a, isolate …, strain)
Test: ELISA

B1: HEPC108 IgG (antibody, V domains shown)
VH: QVQLVQSGAEVKKPGSSVKVSCKASGDTFSSSAISWVRQAPGQGLEWMGGSIPIFGATKYAQKFQGRVTITTDKSTSTAYMELSSLRFEDTAVYYCARASIVNISGFVRFRFDSWGQGTLVTVSS
VL: DIQMTQSPSSLSASVGDRVTITCQASQDISNYLNWYQQKPGKAPKLLIYDVSNLEIGVPSRFSGSGSGTEFTLTINSLQPEDLATYFCQHYDDVPPVYTFGQGTSLEIK
- binding result: binds
